According to IntAct's records for PubMed 15156152:

B1: Integrin beta-5 (Homo sapiens), P18084 (parent)
chain: MPRAPAPLYACLLGLCALLPRLAGLNICTSGSATSCEECLLIHPKCAWCSKEDFGSPRSITSRCDLRANLVKNGCGGEIESPASSFHVLRSLPLSSKGSGSAGWDVIQMTPQEIAVNLRPGDKTTFQLQVRQVEDYPVDLYYLMDLSLSMKDDLDNIRSLGTKLAEEMRKLTSNFRLGFGSFVDKDISPFSYTAPRYQTNPCIGYKLFPNCVPSFGFRHLLPLTDRVDSFNEEVRKQRVSRNRDAPEGGFDAVLQAAVCKEKIGWRKDALHLLVFTTDDVPHIALDGKLGGLVQPHDGQCHLNEANEYTASNQMDYPSLALLGEKLAENNINLIFAVTKNHYMLYKNFTALIPGTTVEILDGDSKNIIQLIINAYNSIRSKVELSVWDQPEDLNLFFTATCQDGVSYPGQRKCEGLKIGDTASFEVSLEARSCPSRHTEHVFALRPVGFRDSLEVGVTYNCTCGCSVGLEPNSARCNGSGTYVCGLCECSPGYLGTRCECQDGENQSVYQNLCREAEGKPLCSGRGDCSCNQCSCFESEFGKIYGPFCECDNFSCARNKGVLCSGHGECHCGECKCHAGYIGDNCNCSTDISTCRGRDGQICSERGHCLCGQCQCTEPGAFGEMCEKCPTCPDACSTKRDCVECLLLHSGKPDNQTCHSLCRDEVITWVDTIVKDDQEAVLCFYKTAKDCVMMFTYVELPSGKSNLTVLREPECGNTPNAMTILLAVVGSILLVGLALLAIWKLLVTIHDRREFAKFQSERSRARYEMASNPLYRKPISTHTVDFTFNKFNKSYNGTVD

Variants of: B1
Conditions: with myo10_mouse Myo10, F8VQB6
Sequence of myo10_mouse Myo10, F8VQB6 (F8VQB6 whole entry): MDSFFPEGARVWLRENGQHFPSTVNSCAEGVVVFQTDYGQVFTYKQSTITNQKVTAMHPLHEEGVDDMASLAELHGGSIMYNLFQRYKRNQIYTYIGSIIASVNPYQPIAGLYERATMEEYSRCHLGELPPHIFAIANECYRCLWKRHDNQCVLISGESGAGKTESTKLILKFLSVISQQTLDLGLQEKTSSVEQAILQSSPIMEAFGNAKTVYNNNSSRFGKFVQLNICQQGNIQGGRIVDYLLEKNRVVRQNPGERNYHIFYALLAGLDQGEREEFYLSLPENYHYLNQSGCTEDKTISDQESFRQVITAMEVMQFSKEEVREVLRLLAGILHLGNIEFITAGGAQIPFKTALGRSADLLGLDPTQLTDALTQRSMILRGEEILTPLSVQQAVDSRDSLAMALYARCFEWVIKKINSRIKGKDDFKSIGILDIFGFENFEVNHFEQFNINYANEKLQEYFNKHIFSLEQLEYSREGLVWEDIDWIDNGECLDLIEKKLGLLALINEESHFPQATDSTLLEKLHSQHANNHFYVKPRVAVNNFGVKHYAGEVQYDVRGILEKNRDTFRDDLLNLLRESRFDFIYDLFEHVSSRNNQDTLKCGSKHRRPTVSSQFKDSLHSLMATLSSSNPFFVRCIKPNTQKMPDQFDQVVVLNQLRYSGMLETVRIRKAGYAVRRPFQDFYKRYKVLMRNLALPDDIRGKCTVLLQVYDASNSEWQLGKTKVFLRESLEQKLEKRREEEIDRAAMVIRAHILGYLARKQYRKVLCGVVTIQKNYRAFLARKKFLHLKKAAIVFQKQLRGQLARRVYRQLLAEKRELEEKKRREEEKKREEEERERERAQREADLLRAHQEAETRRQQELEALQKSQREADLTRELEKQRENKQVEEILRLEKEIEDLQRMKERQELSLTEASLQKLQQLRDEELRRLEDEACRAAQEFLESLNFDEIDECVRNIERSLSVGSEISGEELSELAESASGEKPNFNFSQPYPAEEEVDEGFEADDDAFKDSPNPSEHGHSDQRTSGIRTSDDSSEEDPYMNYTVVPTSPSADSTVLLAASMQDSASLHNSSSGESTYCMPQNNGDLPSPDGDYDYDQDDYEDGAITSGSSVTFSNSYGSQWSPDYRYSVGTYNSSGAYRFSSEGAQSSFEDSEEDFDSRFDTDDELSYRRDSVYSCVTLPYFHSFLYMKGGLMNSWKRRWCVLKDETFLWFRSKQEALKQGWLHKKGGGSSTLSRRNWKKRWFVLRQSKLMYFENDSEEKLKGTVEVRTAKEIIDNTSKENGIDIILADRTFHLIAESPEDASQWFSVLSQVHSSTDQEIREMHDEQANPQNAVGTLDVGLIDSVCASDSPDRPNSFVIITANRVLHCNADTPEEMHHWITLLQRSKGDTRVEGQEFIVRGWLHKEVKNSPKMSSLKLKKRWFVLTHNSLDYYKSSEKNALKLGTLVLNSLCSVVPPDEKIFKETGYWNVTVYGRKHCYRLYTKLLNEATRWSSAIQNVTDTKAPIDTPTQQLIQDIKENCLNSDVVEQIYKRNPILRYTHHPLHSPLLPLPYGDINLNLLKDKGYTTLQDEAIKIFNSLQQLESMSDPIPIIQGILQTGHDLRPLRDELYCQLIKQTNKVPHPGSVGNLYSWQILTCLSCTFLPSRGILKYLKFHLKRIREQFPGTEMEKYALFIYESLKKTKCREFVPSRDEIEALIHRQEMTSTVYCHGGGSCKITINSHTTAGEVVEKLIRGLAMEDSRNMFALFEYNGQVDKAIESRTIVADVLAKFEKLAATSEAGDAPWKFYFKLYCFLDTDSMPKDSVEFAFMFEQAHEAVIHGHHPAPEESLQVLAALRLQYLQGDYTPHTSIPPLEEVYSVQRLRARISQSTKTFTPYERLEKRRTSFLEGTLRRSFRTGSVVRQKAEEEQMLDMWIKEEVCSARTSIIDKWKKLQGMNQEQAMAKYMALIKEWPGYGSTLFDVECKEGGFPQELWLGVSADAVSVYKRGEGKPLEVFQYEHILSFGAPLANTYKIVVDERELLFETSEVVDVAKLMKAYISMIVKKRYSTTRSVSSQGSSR

| Variant | effect of a mutation on the interaction |
| --- | --- |
| Y774A | disrupting interaction |
| P772A | disrupting interaction |
| L773A | decreasing interaction |

Variants of: B1
Conditions: with myo10_bovin MYO10, P79114
Sequence of myo10_bovin MYO10, P79114 (P79114 whole entry): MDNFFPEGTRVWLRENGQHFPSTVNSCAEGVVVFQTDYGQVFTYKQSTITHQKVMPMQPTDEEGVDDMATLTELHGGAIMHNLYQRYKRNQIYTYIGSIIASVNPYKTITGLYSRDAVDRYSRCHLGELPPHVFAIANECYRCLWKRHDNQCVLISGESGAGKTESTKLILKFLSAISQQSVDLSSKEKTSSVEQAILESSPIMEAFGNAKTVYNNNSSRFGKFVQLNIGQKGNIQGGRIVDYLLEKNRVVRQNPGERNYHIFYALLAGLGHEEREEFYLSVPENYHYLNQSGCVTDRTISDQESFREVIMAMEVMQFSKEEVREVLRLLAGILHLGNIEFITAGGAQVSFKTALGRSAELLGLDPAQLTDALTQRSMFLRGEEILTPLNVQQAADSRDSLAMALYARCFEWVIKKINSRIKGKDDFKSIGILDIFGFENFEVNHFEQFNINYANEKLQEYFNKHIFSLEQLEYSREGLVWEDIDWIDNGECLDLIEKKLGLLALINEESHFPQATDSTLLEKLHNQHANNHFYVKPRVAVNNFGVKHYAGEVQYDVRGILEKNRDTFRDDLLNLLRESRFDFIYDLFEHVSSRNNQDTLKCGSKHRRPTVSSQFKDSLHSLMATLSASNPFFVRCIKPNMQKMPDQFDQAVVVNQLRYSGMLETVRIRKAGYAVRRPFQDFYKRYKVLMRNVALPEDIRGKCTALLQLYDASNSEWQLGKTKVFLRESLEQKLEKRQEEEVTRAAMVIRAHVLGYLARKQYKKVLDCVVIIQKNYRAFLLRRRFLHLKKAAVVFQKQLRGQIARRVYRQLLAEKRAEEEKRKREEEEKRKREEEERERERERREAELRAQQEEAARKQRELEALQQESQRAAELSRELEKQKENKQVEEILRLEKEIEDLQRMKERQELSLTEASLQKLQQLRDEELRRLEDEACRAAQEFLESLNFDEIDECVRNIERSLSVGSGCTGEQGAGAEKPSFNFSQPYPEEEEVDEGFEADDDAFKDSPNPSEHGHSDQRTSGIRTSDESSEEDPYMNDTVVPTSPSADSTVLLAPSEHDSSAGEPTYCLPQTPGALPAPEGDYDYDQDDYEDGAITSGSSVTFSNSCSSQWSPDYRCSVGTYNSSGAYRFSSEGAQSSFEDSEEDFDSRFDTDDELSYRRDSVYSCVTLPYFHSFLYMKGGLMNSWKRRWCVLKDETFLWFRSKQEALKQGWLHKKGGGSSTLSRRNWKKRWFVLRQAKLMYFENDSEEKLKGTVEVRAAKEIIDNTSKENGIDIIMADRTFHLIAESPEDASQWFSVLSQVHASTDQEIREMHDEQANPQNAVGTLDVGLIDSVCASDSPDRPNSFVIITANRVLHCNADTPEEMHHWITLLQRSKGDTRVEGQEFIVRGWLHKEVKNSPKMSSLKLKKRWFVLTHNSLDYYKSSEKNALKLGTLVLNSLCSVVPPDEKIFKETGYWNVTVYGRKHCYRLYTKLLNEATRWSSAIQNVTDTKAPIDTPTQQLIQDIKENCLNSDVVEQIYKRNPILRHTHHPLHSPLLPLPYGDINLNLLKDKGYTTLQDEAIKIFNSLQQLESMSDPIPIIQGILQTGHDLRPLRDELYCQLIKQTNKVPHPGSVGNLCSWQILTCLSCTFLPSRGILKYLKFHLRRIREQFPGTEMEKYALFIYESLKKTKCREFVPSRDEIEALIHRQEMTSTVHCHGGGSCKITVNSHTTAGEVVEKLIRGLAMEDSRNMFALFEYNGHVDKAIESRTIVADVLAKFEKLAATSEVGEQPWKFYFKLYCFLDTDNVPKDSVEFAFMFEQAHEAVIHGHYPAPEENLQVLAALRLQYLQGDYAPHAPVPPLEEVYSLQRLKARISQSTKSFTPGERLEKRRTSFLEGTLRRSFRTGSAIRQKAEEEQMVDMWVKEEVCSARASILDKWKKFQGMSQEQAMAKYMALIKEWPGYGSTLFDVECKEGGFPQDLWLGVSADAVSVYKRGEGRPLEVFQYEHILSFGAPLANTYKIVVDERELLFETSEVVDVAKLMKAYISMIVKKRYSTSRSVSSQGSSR

| Variant | effect of a mutation on the interaction |
| --- | --- |
| P772A | disrupting interaction |
